Source: a protein production outcome set (Wang et al. 2014)

Test: label from the status in PepcDB records
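Further: failed if final PepcDB status was selected cloned or expressed and not failed if soluble or beyond.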

Row | Sequence | protein production
1 | MKLPKALNEATAGAALKYHIKRALERSHSISDFSKNLELSTQKSHFSNNTLKIIEELNNGVKQASEEIKEKARDFSNQKLTNEQIKDLLNNAEIPTSGRDAITFGVNNLNPEIVEFLHKNNKKMIIEKASNKELELLKDANFKHPENIRASLDHDAIAHILKRHGVNSVNVRNGEIPITNEDIANYRYIVNNADAILRTLDNENKELISAFKQINGYAVVVEQAINKKNELVLKTMYKSKGDYKDNNAYKKFSSTHTLNADAKVNHRLSSYSGATENTTQKDLIDQENLLKTSENLNESTPKPTNLSPLEQANAEKLAKLESEKLESEKEFLKAKEQEATRKAALKKKLEHERGNAGNIESQTKIEVGEDIPTQTQAQLPKSRVRLNEREIYDLDYAIVKAKDLKPSFTTGGTQKRTDMNEEQIKSIAENFDPKKIFGSGGFEDLPIILHDGQVIAGNHRIQGMLNFTPKSRFSYERAIKEYYHIDLKPDELLVRVPHKRLNNTEINNLAASSNQGRFNSESDHAIAVLSHYEAKLKELDQKLDADSIYSLKNIVAKNLNFDKATHPNVTDSNLALLMFNMPRTKTQGIELLNRWKKEFSNDIKSYEKVKKMFVDNAGSFHNLIHDLNFPKVSLNAYLSDIMDRSFANLKNYQSTSESLKDLSEKFYKTSSLEMFEKSDQSTSDISEILGGAIARFARFDDPSKALFEALRSDNIKKGLKDYKIADVTKDMFNADSKEFKDIDIYDFTHYLLMVNREPNENNPILKRLIEAVKDMQKESEKGIKQKLETPSEWGHNYSEFKGDGLGAINKLLETKKGFVAGAFHKEGLGDIDLVYGNSKYGLEHIFNRRESDAIDKGMSKEEAKKYALKIINNIPNIISNGKLSKDNLGRLSIEFENQRVGLNDSWKGETLNNRWVITSYEIDKSRNGLIESPLAPNYKGKDTNPLNLDSPNPTTKN | failed
2 | MKLSSNNAETMESLRSERNQYRILVDITNSVLAHLDMDGLISEVSKEIHRFFGLNHISLMLCRTSSQNSHEGILYSSRYQTGKSVIRQQRKFSSANNKAEEIIHQNKPVLIDINKEDQDDVLIKRLVKQNMQTALLLPLAFNRKPLGLLILAHEISSVFTEETCQLLQQIAARIGIAIENAAAYEEITHLKDS | failed
3 | MKLTLRKKLLEKVENTTETPMLILSVVYVVVALLPDIAVLSPDDLEFLDGLLWIVWGIFATELLVKIFVSPKPLQYMMQNWPDVLIVAMPFLRPLRFLRILLVLPKAWRQTKSVLRQKTFSFIGLTSLSTVLLSAAFVYLVEKGTPSPINSYADALWWAMSTITTVGYGDMYPVTGFGRGVAVFLMLTGITLFGLLTASVASFFVEDDTAKQDHLSLNLLLEKNQQLETQLNQLVETQQPRKRFHLASYRRQLAERETVRKNQKPKRRRIKLPSQDNRNA | failed
4 | MKLTPKELDKLMLHYAGELAKKRKEKGIKLNYVEAVALISAHIMEEARAGKKTAAELMQEGRTLLKPDDVMDGVASMIHEVGIEAMFPDGTKLVTVHTPIEANGKLVPGELFLKNEDITINEGKKAVSVKVKNVGDRPVQIGSHFHFFEVNRCLDFDREKTFGKRLDIASGTAVRFEPGEEKSVELIDIGGNRRIFGFNALVDRQADNESKKIALHRAKERGFHGAKSDDNYVKTIKE | failed
5 | MKLVEHYIMRGTRRLVLIIVGFLIFIFASYSAQRYLTEAANGTLALDVVLDIVFYKVLIALEMLLPVGLYVSVGVTLGQMYTDSEITAISAAGGSPGRLYKAVLYLAIPLSIFVTLLSMYGRPWAYAQIYQLEQQSQSELDVRQLRAKKFNTNDNGRMILSQTVDQDNNRLTDALIYTSTANRTRIFRAGSVDVVDPSPEKPTVMLHNGTAYLLDHQGRDDNEQIYRNLQLHLNPLDQSPNVKRKAKSVTELARSAFPADHAELQWRQSRGLTALLMALLAISLSRVKPRQGRFSTLLPLTLLFIAIFYGGDVCRTLVANGAIPLIPGLWLVPGLMLMGLLILVARDFSLLQKFSR | failed
6 | MKLVTYNIQYGIGLDGQYDVARIADAVRGADVVALQEVTRNNPRNGGRDMVAEIGEALPDYFAVYGSNFEANIGSRIENGRAITTTFQLGNMMLSKTPIHLSRNLLLPRSRSFEMMNFQRGALEALIETPLGFIRFYSIHLDHRSPVERASQIQFLRRRLLNYALEGGALSGVAEIGLPELPHPEAFVAMGDFNMLAGSPEYVELAGRPDHQFGMPLTADFAVDAAVRLNVTGDDLASWVDPKDPANTSRHKRIDYVFTSASPARSLQHLWVDHQATGSDHLPVWAELG | failed
7 | MKMDTGALTFQQKIYWLVKQIPLGRVATYGQIAALCGWPRHGRYVGYALYRVAPNSDIPWHRVVNAQGKISYAPQRRGTDELQRWRLAAEGIIFTAGLEHHHHHH | failed
8 | MKMEARQKQNSFTSKMQKIVNHRAFTFTVIALILFNALIVGIETYPRIYADHKWLFYRIDLVLLWIFTIEIAMRFLASNPKSAFFRSSWNWFDFLIVAAGHIFAGAQFVTVLRILRVLRVLRAISVVPSLRRLVDALVMTIPALGNILILMSIFFYIFAVIGTMLFQHVSPEYFGNLQLSLLTLFQVVTLESWASGVMRPIFAEVPWSWLYFVSFVLIGTFIIFNLFIGVIVNNVEKAELTDNEEDGEADGLKQEISALRKDVAELKSLLKQSK | failed
9 | MKMKHAFGPIILACVLFFIIILIPSKSLVSLISDKKVEDAATSLQKEKLQSVFLQQKMLENSQYLPMYGSSEFLRMDAYHPSNYFKVNPAGFTPYLIGIGGTQSLAHILNMTSTIDELEGKKVVFVLSPQWFTKTGVSQGDFTNNFSKQQAYHFIFNDKMNVEMKKQIAKRLLDYKVVQEDDILKNSLEGIVYNDTKHNIKAGLVKPLAYMHRNILDHRDLFNSIFKIEPMKEKTNVGLRSISWVDARKHAEEEGKAESTTNTFGIENPYYYKHNLKKKLKGLKNFRVNESYEESPEYDDLQIVLNIFKEKNVKPLFISVPVNGPWYDYAGFPKERREVYYKKVREQVEKAGYPVVDFSGHEYDKYFLKDTIHLGWKGWIYFDEAVQNFYNEKLEHHHHHH | failed
10 | MKMMDANEIISFIQKSEKKTPVKVYIKGDLKEVTFPETVQAFVNKKSGVLFGEWSEIKTILDENSKYIVDYVVENDRRNSAIPMLDLKGIKARIEPGAIIRDHVEIGDNAVIMMNATINIGAVIGEGSMIDMNAVLGGRATVGKNCHVGAGAVLAGVIEPPSAKPVIVEDDVVIGANVVVLEGVTVGKGAVVAAGAVVTEDVPPYTVVAGTPARVIKEIDEKTKAKTEIKQELRQLNPEK | failed
11 | MKMMDANEIISFIQNSTKSTPVKVYVKGELEGINFGESAKAFINGNTGVVFGEWSEIQTAIEENQSKIEDYVVENDRRNSAIPMLDLKNIKARIEPGAIIRDQVEIGDNAVIMMGASINIGSVIGEGTMIDMNVVLGGRATVGKNCHIGAGSVLAGVIEPPSAKPVVIEDDVVIGANAVVLEGVTVGKGPVVAAGAIVVNDVEPYTVVAGTPAKKIKDIDEKTKGKTEIKQELRQL | not failed
12 | MKMVDELKGNLNSFLILLGIFSFLQFSFKQSFMFPSILPLNIPDSNLLLVIGNISFYFFFVFLLIVSMILSLTYKSLIPLTIILTISPFITLIPNYENSFLLYSLEIAILILGLASTIEGLIKSSLLSILLIPTLVLVNLGIYASILLNIFHNALFISYLTIYLISIAGYLAYVISWGKIKSLRNYIAISVGLLSMIPFIFFENIISHNRYLEILMNMILPSTLGITLYNPYHITLLVMALGLSTMGIVTSLIKGNVSSGVGYFLIITTVFLGIDGFSLLIYMLTPIIGFLVITSSEIESKRRLIDIISPTRNG | failed
13 | MKNAFLYFLLYYRMLTTYYEWFVIVCFPQIRKICCYNEDTKTNAMEAIMKKLIGIATAAVFGLGIFTSSANAETVVTTDVLNVRENPTTESKVVGKLLNGNKIDVQNTENGWSKITLDGKDAFVSAEFTKSIYYVTANVLNVRAEANTNSEILGTLKKDDMIETTNQVQNEWLQFEYNGKTAYVHVPFLTGTAPVIEKQEQPAPAKAQAPAQAPAAQAKQAAKPAVKAAETNTPSGGRELTVVATAYTAHPSENGGTYGGRVLTAMGHDLTANPNMKMIAVDPKVIPLGSKVWVEGYGEAIAGDTGGAIKGNRIDILLGSDSAAQKWGRKTVKVKILK | failed
14 | MKNEGKKGTEQAKKPEKTKITENEINGNESGKQSFEVDRRSVYRCVQCGTCRSVCPVFDVVGWESANTRGRMLIIKSLLEGRPPSEDMLPSLASCTTCGICAVKCPAGVKPPKVVEAARAQLVKCGITTEAQKNLKSTIMTYGNSFGETRDRKHWLSEVERSQLPEKSDYVYFVGCFDSYRYPEFAKKTFGILQQFGVTLLPDEQCCASPLLRTGFKEDAEKVMKHNLEQIRKVGAHTIITSCAGCYTTLKNNYPEELKVISLPEFLVEHLEELNLKKLDLTVTYHDPCHLGRHNKVYDAPRKVIQAICTLKEMKYIKENARCCGGGGGVRTGYPDISLELARNRLKDVPEGVDYIVTSCPLCVRNLRDAGGDIEVIDIVELVAMAME | failed
15 | MKNEVFFGEGMKVVAAAYPDLYDIIVKLNDTVFTGKTLDYKTQKLIAIGIVASRCDEVAIEKQMKSAMKELGITKEEIADVLRVVLLTSGMPAFTKAMKILEKL | not failed
16 | MKNFLMKKIIYSGVLSIHFILAFVVNSVGAAQLKKSSTLSMNVLFITIDDLNNDLGAYGHHLVKSPNIDALAKKGIRFDKAYSQSPMCTPSRSSFMTGLYPDQTGIIAHGSHTQMTAHFREHIPKVTTLPQLFKNNGYFSGRVGKIYHQGVPNQIGTSGADDAASWHETVNPIGLDKDVEDKIIAFNEKALVRQSFGGVLSFLAIGDDDKAHTDGKVATETINMIKDHHPDKTGKPFFIGAGFYRPHTPFVAPKKYFDLYPLEKIKPYIAPKNDRKDIPDIALQDREGQVGLTLNQRKQIIQGYYAAVSYVDAQVGRVLDALKQQDLSDNTIVVFLSDHGYELGQHGLWQKGSLFEGSARAPLIIYAPNVKDNGRVVTSPVELVDIYPTLAKLTGLVAPEYLAGKDLTPALNDVDFQVRKGAYSAILNRNKGDNNQFAFTKIRGHSIRTNRYRYTEWGEGYFGAELYDHKNDPQELKNLADKVSLESVRIKMKWLLNDAMDDAQKRIKSIE | failed
17 | MKNIEKLEQSLTYEFKDKNLLIHALTHKSFKKSYNNERLEFLGDAVLDLVVGEYLFHKFAKDAEGDLSKLRAALVNEKSFAKIANSLNLGDFILMSVAEENNGGKEKPSILSDALEAIIGAIHLEAGFEFAKTIALRLIEKNFPQIDAKILIKDYKTKLQEITQGKIGQTPQYETVRAFGPDHLKQFEIALMLDGKELARAIAGSKKEAQQMAAKIALEKLGAL | not failed
18 | MKNILKVFNTTILALIIIIATFSNSANAADSGTLNYEVYKYNTNDTSIANDYFNKPAKYIKKNGKLYVQITVNHSHWITGMSIEGHKENIISKNTAKDERTSEFEVSKLNGKIDGKIDVYIDEKVNGKPFKYDHHYNITYKFNGPTDVAGANAP | not failed
